Source: patent publication US20140294863A1, “SERUM ALBUMIN BINDING PEPTIDES FOR TUMOR TARGETING” (GENENTECH, INC., priority 2002, published 2014)
Marks after values point to notes of the source that are not given here. Where a SMILES comes first, the peptide text is derived from it. Bridges are numbered along the chain shown (N, C = ends). Where no end group is shown, it is not given here.

What was measured:
rabbit albumin [1] = target: T1, rabbit albumin (Oryctolagus cuniculus, UniProt P49065); experiment: Direct Binding ELISA, AB.Fab variants on immobilized rabbit albumin; set-up: purchased Sigma; details: average and SD of at least 3 determinations
Description: (§1) Mouse, rat, or rabbit albumin (Sigma, St. Louis, Mo.) were immobilized onto NUNC Maxisorp™ 96-well plates at 2 ug/ml overnight at 4° C. […] AB.Fab variants were serially diluted in binding buffer and added at 100 μl per well to the immobilized albumin for 30 minutes at 25° C. Unbound AB.Fab variant was removed by washing wells with 0.05% PBS/Tween® 20 and bound AB.Fab variant was detected with goat anti-human Fab′2-HRP for 1 hour at 25° C. Bound HRP was measured with a solution of tetramethylbenzidine (TMB)/H202. After 15 minutes, the reaction was quenched by the addition of 1M phosphoric acid.
(§2) Initially we explored binding of the AB.Fab variants to immobilized albumin using a Direct Binding ELISA.

rat albumin [2] = target: T2, rat albumin (Rattus norvegicus, UniProt P02770); experiment: Direct Binding ELISA, AB.Fab variants on immobilized rat albumin; set-up: purchased Sigma; details: average and SD of at least 3 determinations
Description: as §1, §2

rabbit albumin [3] = target: T1, rabbit albumin; experiment: SA08b binding assay (peptide competition ELISA), rabbit albumin; set-up: purchased Sigma; details: for effect on SA08b peptide binding to rabbit albumin: concentrations of up to 100 μM, data not shown; for improvement in IC50 relative to core sequence of about 10 amino acids: rabbit albumin
Text: (§3) Plates were blocked as described above.
(§4) Peptides corresponding to identified phage sequences were synthesized and their affinity for rat, rabbit or mouse albumin measured using the SA08b binding assay.

rat albumin [4] = target: T2, rat albumin; experiment: SA08b binding assay (peptide competition ELISA), rat albumin; set-up: purchased Sigma; details: concentrations of up to 100 μM; data not shown
Text: as §3, §4

[5] = Pharmacokinetics of AB.Fab variants in rabbits (HER2 Binding ELISA); type: in vivo; details: Rabbit; group mean
Description: (§5) All pharmacokinetic (PK) studies were conducted according to protocols approved by the Institutional Animal Care and Use Committee at Genentech, Inc. Sprague Dawley rats were supplied by Charles River Laboratories (Hollister, Calif. USA). New Zealand White (NWZ) rabbits were supplied by Myrtle's Rabbitry (Thompson Station, Tenn. USA). BALB-c mice were supplied by Charles River (Hollister, Calif. USA).
(§6) Briefly, samples were added to microtiter wells coated with HER2ecd and incubated for 2 hours at room temperature. The wells were washed, and goat anti-huFab-HRP was added and incubated for 1 hour at room temperature. Unbound HRP was removed by washing and enzyme substrate was added to detect bound HRP. […] Concentrations of AB.Fab were extrapolated by comparison to a standard curve of the dosed molecule.
(§7) For rats and rabbits, concentration versus time profiles for each animal were fit to a two compartment model using, iterative re-weighting to estimate the pharmacokinetic parameters of Area Under the Concentration-Time Curve (AUC), Clearance (CL), Beta Half-Life (t1/2β), Volume of Distribution of the Central Compartment (V1), and Steady State Volume of Distribution (Vss) using WinNonlin® software (Version 3.2, Pharsight, Inc.; Mountain View, Calif.) and group means were calculated.

[6] = Pharmacokinetics of AB.Fab variants in mice (HER2 Binding ELISA); type: in vivo; details: Mouse, group mean profile; for t1/2β: 4D5-H8 fit to one-compartment model (one half life estimate)
Description: as §5
Over the course of 7 days serum was collected in 3 mice per time point by retro-orbital bleed or cardiac stick.
as §6
In mice, a group mean serum concentration versus time profile was determined, producing one estimate for pharmacokinetic parameters for each AB.Fab dosing group. […] AB.Fab variant 4D5-H8 was fit to a one compartment model and estimates for the PK parameters of AUC, CL, Half-Life (t1/2) and V1 were determined using WinNonlin® software (Pharsight, Inc., supra).

[7] = Pharmacokinetics of AB.Fab variants in rats (HER2 Binding ELISA); type: in vivo; details: Rat; group mean
Description: as §5
At pre-dose, and over the course of 7 days post-dose, plasma was collected via a cannula inserted in the jugular vein.
as §6, §7

rat albumin [8] = target: T2, rat albumin; experiment: Solution Binding ELISA, AB.Fab variants with soluble rat albumin; set-up: purchased Sigma; details: Rat albumin, as listed in Table 15; read-out: Kd for Albumin
rabbit albumin [9] = target: T1, rabbit albumin; experiment: Phage ELISA, phage clones on immobilized rabbit albumin; type: binding; set-up: purchased Sigma; details: pH 2.9; data not shown
Description: Phage clones (approximately 10^11 phage) were added to Maxisorp plates coated with rat, rabbit, or human albumin or with mouse, bovine, or rhesus albumin (Sigma), as described above. The microtiter plate was washed with wash buffer and bound phage were detected following incubation with HRP/Anti-M13 Conjugate (Amerisham Pharmacia Biotech, Piscataway, N.J.).

T2 sequence (P02770 25-608): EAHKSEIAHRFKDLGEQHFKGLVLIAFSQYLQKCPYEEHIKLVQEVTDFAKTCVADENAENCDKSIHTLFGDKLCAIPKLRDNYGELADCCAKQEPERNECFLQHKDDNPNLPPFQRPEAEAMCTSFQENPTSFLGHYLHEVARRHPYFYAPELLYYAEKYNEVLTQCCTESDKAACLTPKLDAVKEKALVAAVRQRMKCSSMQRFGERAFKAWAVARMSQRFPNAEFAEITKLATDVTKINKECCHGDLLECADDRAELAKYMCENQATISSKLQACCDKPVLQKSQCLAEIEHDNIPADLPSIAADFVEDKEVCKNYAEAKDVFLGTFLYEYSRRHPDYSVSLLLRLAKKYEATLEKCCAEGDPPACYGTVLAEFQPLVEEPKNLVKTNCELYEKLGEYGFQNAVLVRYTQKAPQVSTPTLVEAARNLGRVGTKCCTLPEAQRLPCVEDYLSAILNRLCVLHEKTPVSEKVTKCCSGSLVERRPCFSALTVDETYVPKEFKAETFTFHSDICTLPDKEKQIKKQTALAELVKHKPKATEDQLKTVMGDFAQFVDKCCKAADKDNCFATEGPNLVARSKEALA
T1 sequence (P49065 25-608): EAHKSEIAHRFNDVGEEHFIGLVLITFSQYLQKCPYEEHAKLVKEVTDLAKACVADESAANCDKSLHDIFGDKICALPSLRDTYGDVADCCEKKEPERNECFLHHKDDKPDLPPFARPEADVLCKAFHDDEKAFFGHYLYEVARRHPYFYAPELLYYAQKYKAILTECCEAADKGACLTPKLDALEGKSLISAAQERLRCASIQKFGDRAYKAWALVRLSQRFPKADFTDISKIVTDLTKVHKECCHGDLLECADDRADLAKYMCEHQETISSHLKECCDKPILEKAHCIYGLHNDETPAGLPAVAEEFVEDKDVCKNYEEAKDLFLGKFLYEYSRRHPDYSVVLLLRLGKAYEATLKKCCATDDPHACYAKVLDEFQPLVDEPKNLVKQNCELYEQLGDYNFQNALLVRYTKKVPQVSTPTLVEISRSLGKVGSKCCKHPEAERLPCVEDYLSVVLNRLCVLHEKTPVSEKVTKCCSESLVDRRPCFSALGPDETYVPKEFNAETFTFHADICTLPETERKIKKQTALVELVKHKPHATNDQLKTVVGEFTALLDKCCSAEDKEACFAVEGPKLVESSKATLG

4D5-H4: AB.Fab variant of Fab4D5 with shortened albumin-binding peptide on heavy chain, no GGGS linker (Table 12) (DICLPRWGCLWED; disulfide 3-9 (inferred); also: part of Fab heavy chain)
EC50 (rabbit albumin [1]): 500 ± 50 nM

4D5-H8: AB.Fab variant of Fab4D5 with shortened albumin-binding peptide on heavy chain, no GGGS linker (Table 12) (IEDICLPRWGCLWE; disulfide 5-11 (inferred); also: part of Fab heavy chain)
EC50 (rabbit albumin [1]): 500 ± 50 nM

4D5-H10: AB.Fab variant made by deletion in 4D5-H4 (Table 12) (DICLPRWGCLW; disulfide 3-9 (inferred); also: part of Fab heavy chain)
EC50 (rabbit albumin [1]): > 2000 nM
EC50 (rat albumin [2]): 8 ± 0.003 nM

[Cl][Cu][Cl] [CuCl2, reference compound]
effect on SA08b peptide binding to rabbit albumin (rabbit albumin [3]): no effect
effect on SA08b peptide binding to rat albumin (rat albumin [4]): no effect

N[C@@H](Cc1c[nH]c2ccccc12)C(=O)O [L-tryptophan, reference compound]
effect on SA08b peptide binding to rabbit albumin (rabbit albumin [3]): no effect
effect on SA08b peptide binding to rat albumin (rat albumin [4]): no effect

CC[C@H](C)[C@H](NC(=O)[C@H](CC(C)C)NC(=O)[C@H](CCCNC(=N)N)NC(C)=O)C(=O)N[C@@H](CCC(=O)O)C(=O)N[C@@H](CC(=O)O)C(=O)N[C@H](C(=O)N[C@H]1CSSC[C@@H](C(=O)N[C@@H](CC(C)C)C(=O)N[C@@H](Cc2c[nH]c3ccccc23)C(=O)N[C@@H](CCC(=O)O)C(=O)N[C@@H](CC(=O)O)C(N)=O)NC(=O)CNC(=O)[C@H](Cc2c[nH]c3ccccc23)NC(=O)[C@H](CCCNC(=N)N)NC(=O)[C@@H]2CCCN2C(=O)[C@H](CC(C)C)NC1=O)[C@@H](C)CC [SA22] (Ac-RLIEDICLPRWGCLWED-NH2; disulfide 7-13)
improvement in IC50 relative to core sequence of about 10 amino acids (rabbit albumin [3]): 60 fold

CC[C@H](C)[C@H](NC(=O)[C@H](CC(=O)O)NC(C)=O)C(=O)N[C@H]1CSSC[C@@H](C(=O)N[C@@H](CC(C)C)C(=O)N[C@@H](Cc2c[nH]c3ccccc23)C(=O)N[C@@H](CCC(=O)O)C(=O)N[C@@H](CC(=O)O)C(N)=O)NC(=O)CNC(=O)[C@H](Cc2c[nH]c3ccccc23)NC(=O)[C@H](CCCNC(=N)N)NC(=O)[C@@H]2CCCN2C(=O)[C@H](CC(C)C)NC1=O [SA26, Ac DICLPRWGCLWED NH2] (Ac-DICLPRWGCLWED-NH2; disulfide 3-9)
improvement in IC50 relative to core sequence of about 10 amino acids (rabbit albumin [3]): about 8.6 fold

CC[C@H](C)[C@H](NC(=O)[C@H](CC(C)C)NC(=O)[C@H](CCCNC(=N)N)NC(C)=O)C(=O)N[C@@H](CCC(=O)O)C(=O)N[C@@H](CC(=O)O)C(=O)N[C@H](C(=O)N[C@H]1CSSC[C@@H](C(=O)N[C@@H](CC(C)C)C(N)=O)NC(=O)CNC(=O)[C@H](Cc2c[nH]c3ccccc23)NC(=O)[C@H](CCCNC(=N)N)NC(=O)[C@@H]2CCCN2C(=O)[C@H](CC(C)C)NC1=O)[C@@H](C)CC [SA33] (Ac-RLIEDICLPRWGCL-NH2; disulfide 7-13)
improvement in IC50 relative to core sequence of about 10 amino acids (rabbit albumin [3]): approximately 6 fold

CC[C@H](C)[C@H](NC(=O)[C@H](CC(C)C)NC(=O)[C@H](CCCNC(=N)N)NC(C)=O)C(=O)N[C@@H](CCC(=O)O)C(=O)N[C@@H](CC(=O)O)C(=O)N[C@H](C(=O)N[C@H]1CSSC[C@@H](C(N)=O)NC(=O)CNC(=O)[C@H](Cc2c[nH]c3ccccc23)NC(=O)[C@H](CCCNC(=N)N)NC(=O)[C@@H]2CCCN2C(=O)[C@H](CC(C)C)NC1=O)[C@@H](C)CC [SA35] (Ac-RLIEDICLPRWGC-NH2; disulfide 7-13)
IC50 (rabbit albumin [3]): > 250000 nM

CN(C)c1cccc2c(S(=O)(=O)N(C)CC(=O)O)cccc12 [dansylsarcosine, reference compound]
effect on SA08b peptide binding to rabbit albumin (rabbit albumin [3]): no effect
effect on SA08b peptide binding to rat albumin (rat albumin [4]): no effect

CCCCCCCCCCCCCC(=O)O [myristic acid, reference compound]
effect on SA08b peptide binding to rabbit albumin (rabbit albumin [3]): no effect
effect on SA08b peptide binding to rat albumin (rat albumin [4]): no effect

AB.Fab 4D5-H4 (DICLPRWGCLWED; disulfide 3-9 (inferred); also: part of Fab heavy chain)
AUC [5]: 127 ± 16.5 µg·h/mL
CL [5]: 3.58 ± 0.496 mL/h/kg
V1 [5]: 0.0305 ± 0.00167 L/kg
Vss [5]: 0.0822 ± 0.0102 L/kg
t1/2β [5]: 28.3 ± 2.88 h
AUC [6]: 2070 µg·h/mL
CL [6]: 2.41 mL/h/kg
V1 [6]: 0.0284 L/kg
Vss [6]: 0.0444 L/kg
t1/2β [6]: 13.5 h
AUC [7]: 1450 ± 146 µg·h/mL
CL [7]: 3.24 ± 0.352 mL/h/kg
V1 [7]: 0.0522 ± 0.00421 L/kg
Vss [7]: 0.076 ± 0.00656 L/kg
t1/2β [7]: 20.7 ± 1.07 h

AB.Fab 4D5-H8 (IEDICLPRWGCLWE; disulfide 5-11 (inferred); also: part of Fab heavy chain)
AUC [5]: 232 ± 62.7 µg·h/mL
CL [5]: 1.99 ± 0.477 mL/h/kg
V1 [5]: 0.0296 ± 0.00332 L/kg
Vss [5]: 0.0659 ± 0.0071 L/kg
t1/2β [5]: 36.2 ± 7.13 h
AUC [6]: 2610 µg·h/mL
CL [6]: 1.91 mL/h/kg
Vss [6]: 0.0387 L/kg
t1/2β [6]: 14.0^b hr
AUC [7]: 1890 ± 294 µg·h/mL
CL [7]: 2.44 ± 0.453 mL/h/kg
V1 [7]: 0.0458 ± 0.00811 L/kg
Vss [7]: 0.0859 ± 0.0154 L/kg
t1/2β [7]: 28.0 ± 1.88 h

AB.Fab 4D5-H10 (DICLPRWGCLW; disulfide 3-9 (inferred); also: part of Fab heavy chain)
AUC [5]: 33.7 ± 3.32 µg·h/mL
CL [5]: 13.5 ± 1.40 mL/h/kg
V1 [5]: 0.0368 ± 0.00412 L/kg
Vss [5]: 0.0987 ± 0.0141 L/kg
t1/2β [5]: 12.0 ± 2.21 h
AUC [7]: 541 ± 77.9 µg·h/mL
CL [7]: 9.21 ± 1.24 mL/h/kg
V1 [7]: 0.0446 ± 0.00204 L/kg
Vss [7]: 0.0753 ± 0.0092 L/kg
t1/2β [7]: 10.9 ± 2.86 h

AB.Fab 4D5-H11 (DICLPRWGCL; disulfide 3-9 (inferred); also: part of Fab heavy chain)
AUC [5]: 24.6 ± 2.74 µg·h/mL
CL [5]: 20.6 ± 2.24 mL/h/kg
V1 [5]: 0.0404 ± 0.00438 L/kg
Vss [5]: 0.101 ± 0.0317 L/kg
t1/2β [5]: 11.9 ± 2.61 h
Kd (rat albumin [8]): 2500 nM
AUC [7]: 57.0 ± 7.39 µg·h/mL
CL [7]: 80.2 ± 11.8 mL/h/kg
V1 [7]: 0.0487 ± 0.00225 L/kg
Vss [7]: 0.0816 ± 0.00576 L/kg
t1/2β [7]: 4.21 ± 0.151 h

HSQMEDICLPRWGCLWGDEL [RB-B8]
phage binding to rabbit albumin at pH 2.9 (rabbit albumin [9]): no binding

QRHPEDICLPRWGCLWGDDD [RB-H1]
phage binding to rabbit albumin at pH 2.9 (rabbit albumin [9]): no binding
